For 104 substances, amyloid nucleation score results are on record in the supplement of paper PMC12042874.

The nature of the data set: amyloid nucleation score (Sup35N fusion, yeast selection) (log enrichment); library NNK2; higher = more nucleation; inactive = no reads after selection. In a few lines: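 The nucleation score is the DiMSum log enrichment of output over input reads, centred on the mode score of non-aggregating sequences. Only sequences with 100 or more input reads were scored, using Illumina sequencing of input and output plasmid inserts. Psi-negative yeast expressing Sup35N fused to peptides of 20 random codons were induced 24 hours with 100 μM copper sulfate and grown 7 days at 30°C on medium lacking adenine and uracil.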

± gives the uncertainty stated by the source.

Take LTIRGKVTSTVAMLLDFLDS: the amyloid nucleation score came to 5.86 ± 0.062.
The same measure for YAVLSLKAWCLSG: 4.61 ± 0.054; for DGFVGALDGVISSCWNTLRG: -0.701 ± 0.63.
The same measure for FVLCT: 1.15 ± 0.33; for ILSCGRYWRTDTIVVTGNST: 1.91 ± 0.35; for SDRGYSE: 3.2 ± 0.14.
The value for TGDPTLLMAYSRSYVWRSER was 1.28 ± 0.3.
The substance RVLMHHYTLANLVSLVTNFF had an amyloid nucleation score of 5.867 ± 0.043.
The same measure for GIIAMHSLPRQIGIVLFIAR: 3.3 ± 0.088; for LGPMTLATTLFNCKDRHVSP: 0.438 ± 0.29; for NHIFYRMCSNLTAKYIRLTS: “inactive”.
The same measure for CRSRT: 0.978 ± 0.28; for DRGYVTD: 1.14 ± 0.4; for SAACQCLDFWCSGLGQSQGL: 6.59 ± 0.075.
The same measure for FIKMAITDRCGMAYS: -0.752 ± 0.53; for EMVSLCSSRFRRMMGACLGT: 1.39 ± 0.21.
On to KQIVFSANFDHRGGLVVLRW, for which the amyloid nucleation score was determined as 3.08 ± 0.073.
The value for RNRSGVMW was 0.276 ± 1; that for DGVSCSRVNAVVYARLSQMG was 1.3 ± 0.23; that for GSQVYPPPPMADM was 0.426 ± 0.3.
The value for LSPPYYYHMNCLPYNMSIWP was 2.39 ± 0.09; that for IRGDNWMVCTTYTNSSFLRS was 0.215 ± 0.57.
Consider FSGSALGCEMRYCSRVYWQR, for which the amyloid nucleation score stood at 4.46 ± 0.063.
The value for VRPNSLRHILASLCFLGGEE was 7.416 ± 0.032; that for ALENSDSELCETAWFFHFMH was 0.185 ± 0.8.
The value for CVVKDSSTVFM was -1.9 ± 1; that for ASLSMSLFFALSVA was “inactive”.
PSLMHSHLESNNTSA had an amyloid nucleation score of -0.21 ± 0.44.
The value for TVSPPLVVFAFRISLRSLRP was 1.12 ± 0.4; that for NGVIRVSWSTR was 6.48 ± 0.087.
The same measure for IRLVMWCYHQNDCVVFSSLH: 1.94 ± 0.13; for MGTHKTDGRRQYLVVSSCEV: 0.115 ± 1.
The value for TRQLIYHWDKFSPHPAQFLT was 0.652 ± 0.64; that for CSEVQNLFNM was “inactive”; that for FMQICNFIC was 8.012 ± 0.07.
As for NIFNRA, the amyloid nucleation score result was “inactive”.
The same measure for PACYKDYGSKSPHPPTVGLG: -0.159 ± 0.76; for SWYVGLCMYVPWYERRANGH: 11.04 ± 0.067.
The value for NCPSPLVWDCVLVVGDPVAC was 0.217 ± 0.25; that for SSVEAELICLWKFCTTHVCT was 0.168 ± 0.56; that for MFWRSYNWDFSCYCNCSRGR was 5.054 ± 0.033.
The same measure for MCDIVHY: -0.446 ± 0.79; for RSHGSQGMKSR: 1.12 ± 0.34; for RFFVYWFVFLCRLNGCVLWT: -0.689 ± 0.4.
Take SAVSPVSVADR: the amyloid nucleation score was -0.656 ± 1.1.
As for TLVCSKAFKYVGV, the amyloid nucleation score is 0.131 ± 0.46.
The same measure for YRGYAPIYLHLRSSYVPVAL: -0.319 ± 0.35; for TLLWYCTIADRNSNVRMVAS: 0.966 ± 0.24; for SFASRYFSNKGGLHSDMCAS: “inactive”.
The value for RMPVLSCDCRFFYVLSRVNE was -0.566 ± 1.
The same measure for FTSMLS: 0.374 ± 0.64; for DSCGLCRYGGEMFRKFKFIS: “inactive”; for DAMSMCP: 7.398 ± 0.061.
ALFQECYPGMGNYQGSVATT came in with an amyloid nucleation score of 1.09 ± 0.35.
Take GVHYEKEGVRTSVFSDLSWE: the amyloid nucleation score is -0.021 ± 0.3.
As for FACIGGVLHAGGGVGAIGA, the amyloid nucleation score came to 0.69 ± 0.42.
The value for VAYVQCD was 0.035 ± 0.39; that for TWQVMRRYLENPDGSL was -1.03 ± 0.62.
The value for HHRMSYHY was 1.72 ± 0.28; that for IKDLSRGCFSFYW was 1.37 ± 0.17.
LSASW: the amyloid nucleation score was found to be 1.44 ± 0.38.
The same measure for AMPSRDLITR: 2.52 ± 0.075.
The same measure for KVRFHSL: 2.72 ± 0.11.
As for LWVVQTVDHTSKSSSVWSSL, the amyloid nucleation score was 4.16 ± 0.078.
The same measure for SGIGY: 0.561 ± 0.62.
The same measure for NWTLYFDNRGRVLNTYSTRY: 7.718 ± 0.031; for KAVSLPLVGGLC: -0.684 ± 0.34; for GAHFYRTVMNVRSTLSRYIN: -0.507 ± 0.48.
The value for VQYCFFCAHRDSFGFKHCF was “inactive”; that for YLPTGELIHHYKTSIVLDSA was -0.458 ± 0.41.
In turn, RNAQDKESKIGTVSDSNHWV returned an amyloid nucleation score of 0.107 ± 0.36.
As for VSMGNGARH, the amyloid nucleation score turned out to be 0.194 ± 0.2.
The same measure for SVLGTKVRVYRSGWTLRIFE: -0.456 ± 0.37; for ASGVIDIGYIIVEVVMIFYI: -0.697 ± 0.5.
The substance CTCTDTEDKWVKSGYSRGAH gave an amyloid nucleation score of 2.22 ± 0.079.
The value for LFNGTMY was “inactive”; that for IDSMGFSMKSFDFRYNTSRW was 5.02 ± 0.092; that for YNLESLNFMLCSLRTQGKFR was 0.149 ± 0.25.
As to LVGVPNYVRMHYARLSLTAL, the amyloid nucleation score entry is “inactive”.
For GSKNFPRPIPDYVWVFTGAI, the amyloid nucleation score came to 0.032 ± 0.43.
The value for TLSLSYALLSCVSVIKCPLV was -0.451 ± 0.79.
As to YPWLRIWCDRNDIEVGLVFA, the amyloid nucleation score is -0.055 ± 0.79.
In the case of ISLIFCNSTRIYKFLLMFSW, the amyloid nucleation score result is “inactive”.
In turn, SGRRLRGSKVSGWR yielded an amyloid nucleation score of -1.12 ± 0.76.
The same measure for PFSYFRWWPYRILAWSTWLV: 4.89 ± 0.061; for YFYRRVCGINAGPQPCLEYV: -1.27 ± 0.54; for RVMGCVMGIRGWRIRIGNSG: 1.42 ± 0.47.
YALVVLIWT yielded an amyloid nucleation score of -1.43 ± 1.1.
The substance TLPWFGSFLRGVFKVPLIRG yielded an amyloid nucleation score of 2.27 ± 0.1.
The same measure for DFYSNEWRGDEICVQLLELV: 0.393 ± 0.66; for VAHSVTGFQWHACSREMNFR: 4.57 ± 0.12; for AITSLYSRSLFLVLTCTVCF: 5.683 ± 0.055.
As for MQIIGWILWGVLQAELHYRS, the amyloid nucleation score was -1.01 ± 0.53.
The value for GCVGAVRRLEGSIVYEDRTL was 0.944 ± 0.25; that for RYSFD was -0.588 ± 1.1.
The value for GTSIFHRKDGASTDMACQPF was 0.14 ± 0.63.
The value for QPAVQGITRRKVCWVIMQNA was 0.336 ± 0.46.
Turning to VMYRRSACIEQDSYSNINCR, the amyloid nucleation score came to 0.025 ± 0.29.
The value for TMPFWKDFQT was 0.183 ± 1; that for HVRGDLSRTGKWVMLRCYTR was “inactive”; that for LGHAISAHVMIIICWKDVFL was 5.08 ± 0.077.
The same measure for SLVFVFVITKT: 5.526 ± 0.05; for TLWEGVFKRSWLGVSGSKVE: 0.401 ± 0.23; for SHFGLDADWVEVPYYRFFRY: -0.8 ± 1.
